The values that follow come from the DeepSol protein solubility set.

The data set is described as follows: soluble on expression in E. coli; label from the status in PepcDB or PDB records.
Consider “MSLSQERFRVKYQIFEESKRAKEIAEAICVEQTIEFPIELTGNSIRENVVGKIEEIQNNHNSTVVTISYPVETVGNEPAQFFNVIMGNCSLFPNLKIIGLQLSPSIENIFPGPRYGISGLRKLLSIYNRPLLATAIKPMGLSTDQLAQMAYNLALGGVDIIKDDHGLADQPFSKFKDRVLKVTEAIHKANRETGFHTIYAPNITSNEQTMLKQAEFVKEAGSGALLVSPALSGFSSFITLRENTDLPILSHPAFLGGYLSIMDFDVLFGTIQRMIGADVVIFPNYGGRFTFSKEDCRKINHGLKKPFGSFKEIFPSPAGGMNIDSCGDIVSFYNKDVVLLIGGALHKAGADLTENVKAFKAQVEKIHVREGHHHHHH”, for which the “soluble on expression in E. coli” value is recorded as “soluble”.

Regarding “MPIHVDKPDTMQNELIDIVADGLRSNQIYTFRMILKHDYGTHKSEATFQADPAGRIDLKYAKPLRGSYYDADPMGLFLGMKPCEDFAYGGYLRCTPPVPFYYLLELFDSSGTLIDSTYIKKHWMHPKLIRTELEEDFCATLFKPPGDGPFPVVLDISGTGGGIHEHKGAMLASEGFVVLCLAFFQFKYLPQKMEDVDMEYFAKAINYLIDLPFTKNVIGIQGVSFGATIVDLLTTRHGDKIKALVSINGPQVVSDYLFMQENGAPIPHLSHGQVTLEHCQFINGVMCSHRNFQIMTEKLTPETEIPWERIPSDVKIRVIGSVDDLCQPSVHATYYRQRRLKETGHDVEVELVNGGHIMEPPYFPHHELVYAKYQGFYCGYGGEVVLHAKSQEKTWSNTIKFFQKALGNTKKIQDWDRLTVVVPPRKKSKL”, the “soluble on expression in E. coli” value was “not soluble”.

With “MGHHHHHHSHMQEEEEESWSTSSDLTISISEDDLILESPEPQPNPGGKMEGEDGIEALKLIHAEQERVALSTEKNCILQTLSSPDSEKESSTNAPTREPGQTPDSDVPRAQVGQHVATLKEHDNSVKEEATALLRKALTEECGRRSAIHSSESSCSLPSILNDNSGIKEAKPAVWLNSVPTREQEVSSGCGDKSKKENVAADIPITETEAYQLLKKATLQDNTNQTENRFQKTDASVSHLSGLNIGSGAFETKTANKIASEASFSSSEGSPLSRHENKKKPVINLKSNALWDESDDSNSEIEAALRPRNHNTDDSDDFYD”, the “soluble on expression in E. coli” value is “soluble”.

With “KSEHETRLEAKLFEDYSSVVRPVEDHREIVQVTVGLQLIQLINVDEVNQIVTTNVRLKQQWVDYNLKWNPDDYGGVKKIHIPSEKIWRPDVVLYNNADGDFAIVKFTKVLLDYTGHITWTPPAIFKSYCEIIVTHFPFDEQNCSMKLGTRTYDGSAVAINPESDQPDLSNFMESGEWVIKEARGWKHWVFYSCCPTTPYLDITYHFVMQRLP”, the “soluble on expression in E. coli” value is on record as “soluble”.

In the case of “MGSDKIHHHHHHMGCGVTVANASVYALPVRGNIVGALEAVTTHRDDTLLDIGRFYDLGYNQVTAANPGVNPWLPGQASKVVIPAEYILPPKPWTGIIVDIPARRIYYFPVNDRVVYTYPVGVFLPGWKEALTDTRIIAKFKMPAWNVPKNIHAWFEKKFHMDIPWYWPPGPENPMGELAMETGLSGIFIHGTYHPWGVGMRASQGCFQMFPENVAQLFPMVPVGTPVRIIDQPNLVGVRDGQVYLQSYKPMHAYHKKGIPELQRAVVTIKSFMERNRIEERIDWGMVRRIVTEHNTVALPIGVGAPSYATLSAALPATPYAYAPYGPSANGAAVPPPLPLASAADQEHLHVQVTFPDQKP”, the “soluble on expression in E. coli” value is given as “not soluble”.

On to “GMGSLAEWYQRIPTPDDLTRVESLFANMQAQFPQLKLEFKWNQPMFTDHGTFIMGFNPSKKHLAVAIEPQTMTRFIPQIDKAGYDHSQIIRFPWHKPLDEQLIHDLIAYTIDQKKDATTFWQR”, for which the “soluble on expression in E. coli” value was “soluble”.

Regarding “MDRMKIEAVIFDWAGTTVDYGCFAPLEVFMEIFHKRGVAITAEEARKPMGLLKIDHVRALTEMPRIASEWNRVFRQLPTEADIQEMYEEFEEILFAILPRYASPINAVKEVIASLRERGIKIGSTTGYTREMMDIVAKEAALQGYKPDFLVTPDDVPAGRPYPWMCYKNAMELGVYPMNHMIKVGDTVSDMKEGRNAGMWTVGVILGSSELGLTEEEVENMDSVELREKIEVVRNRFVENGAHFTIETMQELESVMEHIEKQELIIS”, the “soluble on expression in E. coli” value is listed as “soluble”.

With “MSEIALEAWGEHEALLLKPPRSPLSIPPPKPRTAVLFPRREGFYTELGGYLPEVRLRFETYGTLSRRRDNAVLVFHALTGSAHLAGTYDEETFRSLSPLEQAFGREGWWDSLVGPGRILDPALYYVVSANHLGSCYGSTGPLSLDPRTGRPYGRDFPPLTIRDLARAQARLLDHLGVEKAIVIGGSLGGMVALEFALMYPERVKKLVVLAAPARHGPWARAFNHLSRQAILQDPEYQKGNPAPKGMALARGIAMMSYRAPEGFEARWGAEPELGETYLDYQGEKFLRRFHAESYLVLSRAMDTHDVGRGRGGVEEALKRLRAIPSLFVGIDTDLLYPAWEVRQAAKAAGARYREIKSPHGHDAFLIETDQVEEILDAFLP”, the “soluble on expression in E. coli” value was “soluble”.

“MSLDVLSVSEINAQIKALLEATFLQVRVQGEVSNLTIHKVSGHAYFSLKDSQSVIKCVLFKGNANRLKFALKEGQEVVVFGGISVYVPRGDYQINCFEIEPKDIGSLTLALEQLKEKLRLKGYFDEENKLPKPHFPKRVAVITSQNSAAWADMKKIASKRWPMCELVCINTLMQGEGCVQSVVESIVYADSFHDTKNAFDAIVVARGGGSMEDLYSFNDEKIADALYLAKTFSMSAIGHESDFLLSDLVADLRASTPSNAMEILLPSSDEWLQRLDGFNVKLHRSFKTLLHQKKAHLEHLVASLKRLSFENKHHLNALKLEKLKIALENKTLEFLRFKKTLLEKISTQTLTSPFLQTKTERLNRLENALKLAHANLKLPQFGALVSKNNQAIELEALKRGDKIELSNEKTRASAEILSVDRVEGHHHHHH”: the “soluble on expression in E. coli” value is “soluble”.

Regarding “MGSDKIHHHHHHMEAYQFIKDYKAHDPYRKSFIQLAKRIFNIDFAPWYEQGFWNDNYICYSYVDKHEVIANVSVNKMELIINGAKQEAIQIGTVMTAPEYRRQGLAKQLLQKALDDYDSAYDLYFLAANQEAIPLYETCGFQLIEENCYEIDMAGYTLLDKPLRRADVSPEAMVEVKKGSCPLSTVLSAQGDEHILMFYYTAGFRDFIYQVNKDVHVMFQLEGDVLHLYDIFSPAKVNVEQLVEQIAPLATKTVVCHFTPDHSVKQLTAKIDSTSSWMVRTTTKGFPPLARFPKISQA”, the “soluble on expression in E. coli” value was “not soluble”.

“MGSDKIHHHHHHMLDCHEDTLVILAKNIAVEMHYHHAIQLVLSLDKPYDAVLDHQPIESVKGFLIDSDIPHACQSADSTVLVISVDASSSKGRLLKSHLLKRTFILIDELFSAEAIDEFLNFYWRCCDTSQHEFDPLYFLHKLSHEQRNITPFDARLLIAIDFINQDISQIIKVIDIARHISLSESRLRHLFTEQVGIPLTKYVLWVRMKVALREMLKPGVTLSDAAHQAGFTDHAHFTRTFRRMFGVSPSLLLKYGQFLQIFGL”: the “soluble on expression in E. coli” value is given as “not soluble”.

For “MSLSEAVERQTLTIANSKAWKPYSYLDEQGQPSGILIDFWLAFGEANHVDIEFQLMDWNDSLEAVKLGKSDVQAGLIRSASRLAYLDFAEPLLTIDTQLYVHRTLLGDKLDTLLSGAINVSLGVVKGGFEQEFMQREYPQLKLIEYANNELMMSAAKRRELDGFVADTQVANFYIVVSNGAKDFTPVKFLYSEELRPAVAKGNRDLLEQVEQGFAQLSSNEKNRILSRWVHIETIYPRYLMEGHHHHHH”, the “soluble on expression in E. coli” value is on record as “soluble”.

For “MSLDEILKQEMQKELTTRILPYWMERMVDQENGGFYGRITGQEELMPRADKGAILNARILWTYSAAYRLLGREEYKEMANRAKRYLIDHFYDSEFGGVYWSLNYRGEPLDTKKQIYAIGFAIYGLSEFHRATGDPEALMYAVRLFNDIESHSFDGLKNGYCEALTREWNEIADMRLSEKDANERKTMNTHLHILEPYTNLYRVWKDARLERQLYNLIGLFTEKILDKDTSHLQLFFDNDWQSKYPVVSYGHDIEASWLLHEAARVLGDAGLIAEIEPVVKKIAAAASEGLTSDGGMIYEKNLTTGHIDGDYHWWVQAETVVGYYNLFRYFGDRGALQHSIDCWEFIKRHLTDDVHGEWFWSLRADGSLNRDDDKAGFWKCPYHNGRMCIELLGEGHHHHHH”, the “soluble on expression in E. coli” value was “soluble”.
